According to patent publication US20220289856A1 (IGM BIOSCIENCES, published 2022):
Where a chain is given by its changes, count along the chain named.

Assays:
[1] = biological target: T1, recombinant human CD123 protein (Sino Biological 10518-H08H-50) (human, UniProt P26951 19-305); assay: ELISA on plate-coated recombinant human CD123, as in Example 2
T1 construct: also called IL-3 receptor alpha chain; IL-3Rα
T1 sequence (looked up): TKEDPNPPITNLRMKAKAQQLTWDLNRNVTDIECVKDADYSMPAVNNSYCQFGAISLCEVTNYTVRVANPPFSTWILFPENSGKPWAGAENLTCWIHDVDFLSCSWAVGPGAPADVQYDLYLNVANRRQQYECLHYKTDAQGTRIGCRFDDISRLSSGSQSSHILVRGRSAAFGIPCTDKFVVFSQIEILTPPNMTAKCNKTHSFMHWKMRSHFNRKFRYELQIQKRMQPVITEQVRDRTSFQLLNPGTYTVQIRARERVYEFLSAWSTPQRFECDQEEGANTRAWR
Experimental: (§1) 96-well white polystyrene ELISA plates (Pierce 15042) were coated with 100 μL per well of 0.5 μg/mL recombinant human CD123 protein (Sino Biological 10518-H08H-50) or recombinant human CD3ε protein (Acro Biosystems, CDE-H5256-100) overnight at 4° C. Plates were then washed 5 times with 0.05% PBS-Tween and blocked with 2% BSA-PBS. After blocking, 100 μL of serial dilutions of CD123 IgM or IgG, standards, and controls were added to the wells and incubated at room temperature for 2 hours. The plates were then washed 10 times and incubated with HRP conjugated mouse anti-human kappa (Southern Biotech, 9230-05. 1:6000 diluted in 2% BSA-PBS) for 30 min. After 10 final washes using 0.05% PBS-Tween, the plates were read out using SuperSignal chemiluminescent substrate (ThermoFisher, 37070). Luminescent data were collected on an EnVision plate reader (Perkin-Elmer) and analyzed with GraphPad Prism using a 4-parameter logistic model.

[2] = biological target: recombinant human CD3ε protein (Acro Biosystems, CDE-H5256-100) (human, UniProt P07766 23-126); assay: ELISA on plate-coated recombinant human CD3ε
Sequence of recombinant human CD3ε protein (Acro Biosystems, CDE-H5256-100) (P07766 23-126 limits assumed): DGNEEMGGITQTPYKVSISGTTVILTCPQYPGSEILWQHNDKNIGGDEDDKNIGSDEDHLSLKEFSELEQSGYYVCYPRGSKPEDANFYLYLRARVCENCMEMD
Experimental: as §1

[3] = biological target: T1, recombinant human CD123 protein (Sino …); assay: ELISA on plate-coated recombinant human CD123
Experimental: as §1

[4] = biological target: T2, CD123 on AML cells (Kg-1a, MOLM-13, MV4-11, THP-1, PL21) (UniProt P26951 19-378); assay: cell-based or functional assay
[5] = biological target: T2, CD123 on AML cells (Kg-1a, MOLM-13, …); assay: cell-based or functional assay; remark: listed apart in the source

B1: IGM #A-b-J*-H1 (bispecific antibody)
chain 1: EVQLVQSGAEVKKPGESLKISCKGSGYSFTDYYMKWARQMPGKGLEWMGDIIPSNGATFYNQKFKGQVTISADKSISTTYLQWSSLKASDTAMYYCARSHLLRASWFAYWGQGTMVTVSS
chain 2: DIVMTQSPDSLAVSLGERATINCESSQSLLNSGNQKNYLTWYQQKPGQPPKPLIYWASTRESGVPDRFSGSGSGTDFTLTISSLQAEDVAVYYCQNDYSYPYTFGQGTKLEIKR
chain 3: not shown
- EC50 [1]: 0.198 nM

B2: anti-CD123 IgG #1 (antibody, V domains shown)
VH: QVQLQQSGAEVKKPGASVKVSCKASGYTFTDYYMKWVKQSHGKSLEWMGDIIPSNGATFYNQKFKGKATLTVDRSTSTAYMELSSLRSEDTAVYYCARSHLLRASWFAYWGQGTLVTVSS
VL: B1 chain 2 with I2F, E24K, S32T, P52L, S69T, Q106G
notes: Mono-specific IgG version of anti-CD123 #1; also called mono-specific IgG anti-CD123 construct
- binding result [2]: no binding
- binding result [3]: binds

B3: anti-CD123×CD3 IgM #1 (bispecific antibody)
heavy: QVQLQQSGAEVKKPGASVKVSCKASGYTFTDYYMKWVKQSHGKSLEWMGDIIPSNGATFYNQKFKGKATLTVDRSTSTAYMELSSLRSEDTAVYYCARSHLLRASWFAYWGQGTLVTVSSGSASAPTLFPLVSCENSPSDTSSVAVGCLAQDFLPDSITFSWKYKNNSDISSTRGFPSVLRGGKYAATSQVLLPSKDVMQGTDEHVVCKVQHPNGNKEKNVPLPVIAELPPKVSVFVPPRDGFFGNPRKSKLICQATGFSPRQIQVSWLREGKQVGSGVTTDQVQAEAKESGPTTYKVTSTLTIKESDWLSQSMFTCRVDHRGLTFQQNASSMCVPDQDTAIRVFAIPPSFASIFLTKSTKLTCLVTDLTTYDSVTISWTRQNGEAVKTHTNISESHPNATFSAVGEASICEDDWNSGERFTCTVTHTDLPSPLKQTISRPKGVALHRPDVYLLPPAREQLNLRESATITCLVTGFSPADVFVQWMQRGQPLSPEKYVTSAPMPEPQAPGRYFAHSILTVSEEEWNTGETYTCVVAHEALPNRVTERTVDKSTGKPTLYNVSLVMSDTAGTCY
light: not shown
chain: not shown
notes: also called Anti-CD123 XCD3 IgM #1
- T cell-directed killing of MV4-11 cells (luciferase), EC50 [4]: 13.6 pM
- T cell-directed killing of THP-1 cells (luciferase), EC50 [4]: 11.1 pM
- binding result [2]: binds

B4: anti-CD123×CD3 IgG #1 (bispecific antibody)
heavy 1: QVQLQQSGAEVKKPGASVKVSCKASGYTFTDYYMKWVKQSHGKSLEWMGDIIPSNGATFYNQKFKGKATLTVDRSTSTAYMELSSLRSEDTAVYYCARSHLLRASWFAYWGQGTLVTVSSASTKGPSVFPLAPSSKSTSGGTAALGCLVKDYFPEPVTVSWNSGALTSGVHTFPAVLQSSGLYSLSSVVTVPSSSLGTQTYICNVNHKPSDTKVDKKVEPKSCDKTHTCPPCPAPPVAGPSVFLFPPKPKDTLMISRTPEVTCVVVDVKHEDPEVKFNWYVDGVEVHNAKTKPREEEYNSTYRVVSVLTVLHQDWLNGKEYKCKVSNKALPAPIEKTISKAKGQPREPQVYTLPPSREEMTKNQVSLTCDVSGFYPSDIAVEWESDGQPENNYKTTPPVLDSDGSFFLYSKLTVDKSRWEQGDVFSCSVMHEALHNHYTQKSLSLSPGK
light: not shown
heavy 2: not shown
notes: Construct described in WO 2017/210443 A1, made by commercial vendors; also called bispecific anti-CD123×CD3 IgG #1; anti-CD123×anti-CD3 BiTE construct
- binding result [2]: binds

B5: IGM #F-b-J*-H1 (bispecific antibody)
VH: QVQLQESGPGLVKPSQSLSLTCSVTDYSITSGYYWNWIRQFPGNKLEWMGYISYDGSNNYNPSLKNRISITRDTSKNQFFLKLSSVTTEDTATYYCSRGEGFYFDSWGQGTTLTVSS
VL: DIMMSQSPSSLAVSVGEKFTMTCKSSQSLFFGSTQKNYLAWYQQKPGQSPKLLIYWASTRESGVPDRFTGSGSGTDFTLAISSVMPEDLAVYYCQQYYNYPWTFGGGTKLEIK
J-chain: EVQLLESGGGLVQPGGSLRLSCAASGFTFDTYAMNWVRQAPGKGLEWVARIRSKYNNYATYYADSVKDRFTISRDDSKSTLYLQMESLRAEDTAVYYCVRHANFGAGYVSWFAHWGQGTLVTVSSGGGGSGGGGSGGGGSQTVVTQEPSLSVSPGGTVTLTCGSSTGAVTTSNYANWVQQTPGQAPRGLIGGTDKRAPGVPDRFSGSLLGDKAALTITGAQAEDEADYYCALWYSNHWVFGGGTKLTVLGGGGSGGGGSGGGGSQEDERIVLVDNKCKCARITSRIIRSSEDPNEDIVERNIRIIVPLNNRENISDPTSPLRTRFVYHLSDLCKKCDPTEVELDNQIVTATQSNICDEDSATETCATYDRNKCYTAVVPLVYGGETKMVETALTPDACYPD
notes: IgM pentamer with a modified J-chain
- T Cell-Directed Killing EC50 (pM), MV411, Strong Donor T cells [5]: 273 pM
- T Cell-Directed Killing EC50 (pM), MV411, Weak Donor T cells [5]: 1080 pM
- T Cell-Directed Killing EC50 (pM), PL21, Strong Donor T cells [5]: 102 pM
- T Cell-Directed Killing EC50 (pM), THP-1, Strong Donor T cells [5]: 66.3 pM
- EC50 [1]: 0.53 nM

B6: anti-CD123 IgG #2 (antibody, V domains shown)
VH: QVQLVQSGAEVKKPGASVKVSCKASGYTFTSYWMNWVRQAPGQGLEWMGRIDPYDSETHYNQKFKDRVTMTVDKSTSTAYMELSSLRSEDTAVYYCARGNWDDYWGQGTTVTVSS
VL: EVVLTQSPATLSLSPGERATLSCRASKSISKDLAWYQQKPGQAPRLLIYSGSTLQSGIPARFSGSGSGTDFTLTISSLEPEDFAVYYCQQHNKYPYTFGGGTKVEIKR
notes: Mono-specific IgG version of anti-CD123 #2; also called mono-specific IgG anti-CD123 construct
- binding result [2]: no binding
- binding result [3]: binds

B7: anti-CD123×CD3 IgM #2 (bispecific antibody)
heavy: QVQLVQSGAEVKKPGASVKVSCKASGYTFTSYWMNWVRQAPGQGLEWMGRIDPYDSETHYNQKFKDRVTMTVDKSTSTAYMELSSLRSEDTAVYYCARGNWDDYWGQGTTVTVSSGSASAPTLFPLVSCENSPSDTSSVAVGCLAQDFLPDSITFSWKYKNNSDISSTRGFPSVLRGGKYAATSQVLLPSKDVMQGTDEHVVCKVQHPNGNKEKNVPLPVIAELPPKVSVFVPPRDGFFGNPRKSKLICQATGFSPRQIQVSWLREGKQVGSGVTTDQVQAEAKESGPTTYKVTSTLTIKESDWLSQSMFTCRVDHRGLTFQQNASSMCVPDQDTAIRVFAIPPSFASIFLTKSTKLTCLVTDLTTYDSVTISWTRQNGEAVKTHTNISESHPNATFSAVGEASICEDDWNSGERFTCTVTHTDLPSPLKQTISRPKGVALHRPDVYLLPPAREQLNLRESATITCLVTGFSPADVFVQWMQRGQPLSPEKYVTSAPMPEPQAPGRYFAHSILTVSEEEWNTGETYTCVVAHEALPNRVTERTVDKSTGKPTLYNVSLVMSDTAGTCY
light: EVVLTQSPATLSLSPGERATLSCRASKSISKDLAWYQQKPGQAPRLLIYSGSTLQSGIPARFSGSGSGTDFTLTISSLEPEDFAVYYCQQHNKYPYTFGGGTKVEIKRTVAAPSVFIFPPSDEQLKSGTASVVCLLNNFYPREAKVQWKVDNALQSGNSQESVTEQDSKDSTYSLSSTLTLSKADYEKHKVYACEVTHQGLSSPVTKSFNRGEC
chain: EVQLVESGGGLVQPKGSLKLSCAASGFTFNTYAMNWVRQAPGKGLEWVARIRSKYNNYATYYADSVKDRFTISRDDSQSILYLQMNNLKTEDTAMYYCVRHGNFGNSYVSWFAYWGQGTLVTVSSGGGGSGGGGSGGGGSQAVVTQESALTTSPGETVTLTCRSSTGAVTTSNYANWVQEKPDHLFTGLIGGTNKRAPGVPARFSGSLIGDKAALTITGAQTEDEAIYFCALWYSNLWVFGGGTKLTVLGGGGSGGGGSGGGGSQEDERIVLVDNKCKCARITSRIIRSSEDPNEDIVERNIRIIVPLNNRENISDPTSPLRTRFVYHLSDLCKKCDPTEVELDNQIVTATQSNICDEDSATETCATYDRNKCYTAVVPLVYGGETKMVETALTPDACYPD
- binding result [2]: binds
- binding result [3]: binds

B8: IGM #C-b-J*-H1 (bispecific antibody)
VH: QVQLQQPGAELVRPGASVKLSCKASGYTFTSYWMNWVKQRPDQGLEWIGRIDPYDSETHYNQKFKDKAILTVDKSSSTAYMQLSSLTSEDSAVYYCARGNWDDYWGQGTTLTVSS
VL: DVQITQSPSYLAASPGETITINCRASKSISKDLAWYQEKPGKTNKLLIYSGSTLQSGIPSRFSGSGSGTDFTLTISSLEPEDFAMYYCQQHNKYPYTFGGGTKLEIK
J-chain: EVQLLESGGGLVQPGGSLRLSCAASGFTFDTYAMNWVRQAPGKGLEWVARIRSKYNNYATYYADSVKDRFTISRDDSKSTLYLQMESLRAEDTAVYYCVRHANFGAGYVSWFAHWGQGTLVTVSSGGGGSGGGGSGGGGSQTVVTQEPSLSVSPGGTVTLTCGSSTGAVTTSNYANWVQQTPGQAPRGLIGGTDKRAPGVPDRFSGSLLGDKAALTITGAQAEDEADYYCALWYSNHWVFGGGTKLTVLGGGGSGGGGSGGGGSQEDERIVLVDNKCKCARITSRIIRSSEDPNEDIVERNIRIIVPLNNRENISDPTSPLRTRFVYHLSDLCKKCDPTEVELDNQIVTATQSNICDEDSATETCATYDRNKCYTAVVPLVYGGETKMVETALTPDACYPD
- T Cell-Directed Killing EC50 (pM), MV411, Strong Donor T cells [5]: 0.1 pM
- T Cell-Directed Killing EC50 (pM), MV411, Weak Donor T cells [5]: 528 pM
- T Cell-Directed Killing EC50 (pM), PL21, Strong Donor T cells [5]: 147 pM
- T Cell-Directed Killing EC50 (pM), THP-1, Strong Donor T cells [5]: 104 pM
- T Cell-Directed Killing EC50 (pM), THP-1, Weak Donor T cells [5]: 990 pM
- EC50 [1]: 0.354 nM

B9: IGM #B-b-J*-H1 (bispecific antibody)
VH: QIQLVQSGPELKKPGETVKISCKASGYIFTNYGMNWVKQAPGKSFKWMGWINTYTGESTYSADFKGRFAFSLETSASTAYLHINDLKNEDTATYFCARSGGYDPMDYWGQGTSVTVSS
VL: DIVLTQSPASLAVSLGQRATISCRASESVDNYGNTFMHWYQQKPGQPPKLLIYRASNLESGIPARFSGSGSRTDFTLTINPVEADDVATYYCQQSNEDPPTFGAGTKLELK
J-chain: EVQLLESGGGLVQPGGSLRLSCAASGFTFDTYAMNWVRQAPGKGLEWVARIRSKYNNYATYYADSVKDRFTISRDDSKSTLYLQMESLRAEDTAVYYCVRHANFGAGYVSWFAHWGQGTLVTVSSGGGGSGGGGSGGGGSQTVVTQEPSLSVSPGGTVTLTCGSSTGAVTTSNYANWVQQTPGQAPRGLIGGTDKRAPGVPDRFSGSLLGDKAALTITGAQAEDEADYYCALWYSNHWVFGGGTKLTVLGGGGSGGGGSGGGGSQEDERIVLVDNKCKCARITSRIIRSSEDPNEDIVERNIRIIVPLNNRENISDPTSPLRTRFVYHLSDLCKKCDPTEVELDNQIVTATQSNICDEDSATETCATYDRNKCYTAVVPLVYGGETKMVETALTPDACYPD
- T Cell-Directed Killing EC50 (pM), MV411, Strong Donor T cells [5]: 41.2 pM
- T Cell-Directed Killing EC50 (pM), MV411, Weak Donor T cells [5]: 35.3 pM
- T Cell-Directed Killing EC50 (pM), PL21, Strong Donor T cells [5]: 4.9 pM
- T Cell-Directed Killing EC50 (pM), PL21, Weak Donor T cells [5]: 227 pM
- T Cell-Directed Killing EC50 (pM), THP-1, Strong Donor T cells [5]: 12.9 pM
- T Cell-Directed Killing EC50 (pM), THP-1, Weak Donor T cells [5]: 46.2 pM
- EC50 [1]: 0.298 nM
